This note sets out measurements from patent US20210371530A1 (Merck Sharp & Dohme, published 2021).

The test deals with human PD-1 on cells (human, UniProt Q15116 25-288). The experiment in a line: cell-based or functional assay.
Sequence of human PD-1 on cells (Q15116 25-288): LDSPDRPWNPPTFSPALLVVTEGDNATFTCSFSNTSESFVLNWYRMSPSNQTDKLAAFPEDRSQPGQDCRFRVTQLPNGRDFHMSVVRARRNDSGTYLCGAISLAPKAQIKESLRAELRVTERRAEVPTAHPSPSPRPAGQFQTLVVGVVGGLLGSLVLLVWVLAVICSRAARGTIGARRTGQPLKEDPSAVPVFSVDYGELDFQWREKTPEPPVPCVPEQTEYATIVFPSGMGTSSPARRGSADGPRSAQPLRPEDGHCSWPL

B1: Anti-PD-1/LAG3 bispecific antibody 33ARK (bispecific antibody, human IgG1, kappa, L234A L235A)
heavy 1: EVQLVQSGAEVKKPGASVKVSCKASGYTFTSYYLYWVREAPGQGLEWIGGVNPSNGGTNFNEKFKSRVTLTVDTSISTAYMELSRLRSDDTAVYYCTRRDSNYDGGFDYWGQGTTVTVSSASTKGPSVFPLAPSSKSTSGGTAALGCEVTDYFPEPVTVSWNSGALTSGVHTFPAVLESSGLYSLSSVVTVPSSSLGTQTYICNVNHKPSNTKVDKKVEPKSCDKTHTCPPCPAPEAAGGPSVFLFPPKPKDTLMISRTPEVTCVVVSVSHEDPEVKFNWYVDGVEVHNAKTKPREEQYNSTYRVVSVLTVLHQDWLNGKEYKCKVSNKALPAPIEKTISKAKGQPREPQVYVLPPSRDELTKNQVSLLCLVKGFYPSDIAVEWESNGQPENNYLTWPPVLDSDGSFFLYSKLTVDKSRWQQGNVFSCSVMHEALHNHYTQKSLSLSPG
light 1: DIVMTQTPLSLSVTPGQPASISCRASKSVSTSGFSYLHWYLRKPGQPPQLLIFLASNLESGVPDRFSGSGSGTDFTLKISRVEAEDVGVYYCQHSWELPLTFGQGTKLEIKRTVAAPSVFIFPPSDERLKSGTASVVCLLNNFYPREAKVQWKVDNALQSGNSKESVTEQDSKDSTYSLSSRLTLSKADYEKHKVYACEVTHQGLSSPVTKSFNRGEC
heavy 2: not shown
light 2: DIVMTQTPLSLSVTPGQPASISCKASQSLDYEGDSDMNWYLEKPGQPPQLLIYGASNLESGVPDRFSGSGSGTDFTLKISRVEAEDVGVYYCQQSTEDPRTFGGGTKVEIKRTVAAPSVFIFPPSDEELKSGTASVVCLLNNFYPREAKVQWKVDNALQSGNSEESVTEQDSKDSTYSLSSTLELSKADYEKHKVYACEVTHQGLSSPVTKSFNRGEC
With B1, the “AVG EC50 (nM), IL-2 luciferase reporter, Jurkat.hPD-1.IL2luc + THP-1.PD-L1 assay” value was determined as 3.12 nM.
